{"source": "patent EP4681729A1", "about": "(Shanghai Mabgen Biotech Ltd., dated 2026)", "binders": {"B1": {"name": "Tab5 (antibody, V domains shown)", "VH": "EVQLVESGGGVVKPGGSLRLSCAASGFTFGTSSMNWVRQAPGKGLEWVAVISFDGTEIHYADSVKGRFTISRDNSKSTVFLQMNSLRPDDTALYYCAKGSGNIYFYSGMDVWGQGTTVTVSS", "VL": "DIQMTQSPSTLSASVGDRVTITCRAGQSISGWLAWFQQKPGKAPNLLIYETSTLESGVPSRFSGSGSGTEYTLTISSLQPDDFATYYCQQYYSYPLTFGQGTKVEIKR"}}, "key": {"[1]": {"biological_target": "T1, human PVRIG expressed on cells (human, UniProt Q6DKI7 1-326)", "T1 sequence (looked up)": "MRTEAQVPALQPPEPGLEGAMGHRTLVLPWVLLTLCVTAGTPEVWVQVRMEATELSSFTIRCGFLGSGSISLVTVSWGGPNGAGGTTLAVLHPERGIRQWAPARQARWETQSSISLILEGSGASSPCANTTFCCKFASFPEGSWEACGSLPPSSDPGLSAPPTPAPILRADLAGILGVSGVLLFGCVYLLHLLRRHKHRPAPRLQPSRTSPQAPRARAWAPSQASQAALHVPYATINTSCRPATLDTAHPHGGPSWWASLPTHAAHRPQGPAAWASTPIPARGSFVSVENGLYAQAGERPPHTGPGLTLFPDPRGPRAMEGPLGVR", "assay": "cell-based or functional assay"}, "[2]": {"biological_target": "T1, human PVRIG expressed on cells", "assay": "cell-based or functional assay", "remark": "listed apart in the source"}}, "note": "Read-outs that look alike come from different tables or passages of the source."}
{"binder": "B1", "values": [{"measurement": "PVRIG reporter gene cell activity EC50", "setting": "[1]", "value": 0.74, "unit": "nM"}, {"measurement": "PVRIG reporter gene cell activity EC50", "setting": "[2]", "value": 1.38, "unit": "nM"}]}
